Assay results as given in patent US20070254831A1 (published 2007).
Where two headings read alike, the source gives them in different places. Bridge positions count the residues as written; N and C are the ends. Square brackets hold non-standard residues; d marks the D form. Ends that are not written are not given here. Pen = CC(C)(S)[C@H](N)C(=O)O; Dab = NCC[C@H](N)C(=O)O

What was measured:
[1] = molecular target: T1, soluble human FcRn (human, UniProt P55899 24-297; P61769 21-119, biotinylated (Sulfo-NHS-LC-Biotin) in the ELISA; amine-coupled to CM5 chip in SPR); test: SPR, pH 6
T1 construct: also called shFcRn; biotinylated shFcRn
Protocol: (§1) The following steps were performed to cross-link soluble human or cynomolgus FcRn to the dextran surface of a CM5 sensor chip (Biacore AB, Uppsala, Sweden) by an amine coupling reaction involving 1-ethyl-(3-dimethylaminopropyl)-carbodiimide hydrochloride (EDC) (Biacore AB, Uppsala, Sweden) and N-hydroxysuccinimide (NHS) (Biacore AB, Uppsala, Sweden) as recommended by Biacore (BIAapplications Handbook, version AB, section 4.2, Biacore AB, Uppsala, Sweden). […] Residual sites on the FcRn flow cell were blocked with 1 M ethanolamine hydrochloride pH 8.5 (Biacore AB, Uppsala, Sweden). A control flow cell was blocked with ethanolamine for reference subtraction. For analysis of the monomeric peptides, FcRn was coated to a final density of 4000-5000 response units (RU). For analysis of the peptide dimers, FcRn was coated to a density of 2000-2500 RU. All SPR measurements were performed using a BIACORE 3000 Instrument (Biacore AB Uppsala, Sweden). For measurements done at either pH 6 or pH 7.4, experiments were performed in 50 mM phosphate, 100 mM sodium chloride, 0.01% surfactant P20 (Biacore AB, Uppsala, Sweden).
(§2) Ten, 2-fold dilutions of the peptide were injected over the FcRn-CM5 chip at a rate of 20 μl/min for 2 min. The peptide was dissociated from the chip for 2.5 minutes with buffer. Any remaining peptide was removed from the chip with a 30 second injection of HBS-P buffer (Biacore AB, Uppsala, Sweden) at a rate of 30 μl/min. Sensorgrams were generated and analyzed using BiaEval software version 3.1 (Biacore AB, Uppsala, Sweden). The equilibrium RU observed for each injection was plotted against concentration. The equilibrium KD values were derived by analysis of the plots using the steady state affinity model included in the BiaEval software.

[2] = molecular target: T1, soluble human FcRn; test: ELISA, competitor human IgG
Protocol: (§3) The wells were coated with 100 μl/well of 1 μg/ml biotinylated-shFcRn in Buffer A. The plate was sealed and incubated at 37° C. for 2 hours. Afterwards, the plate washed with 200 μl/well of Buffer B (Buffer B: 100 mM MES pH 6, 150 mM NaCl, 0.5% BSA IgG-free (Jackson ImmunoResearch, West Grove, Pa.), 0.05% Tween-20). […] To allow for mixing, the plate was rocked for 2 minutes, sealed and incubated at 37° C. for 2 hours. […] The plate was covered, incubated for 30 minutes at room temperature and washed 4 times with 200 μl/well of ice-cold buffer B. SureBlue TMB substrate solution (100 μl/well, KPL, Gaithersburg, Md.) was added and the plate was allowed to incubate at room temperature until color developed, which took 5 to 10 minutes. Once color developed, 100 μl/well of TMB stop solution (KPL, Gaithersburg, Md.) was added and the absorbance was measured at 450 nm. The data was plotted as absorbance vs. peptide concentration to derive the inhibitory concentration 50% (IC₅₀) values.

[3] = molecular target: T1, soluble human FcRn; test: SPR, pH 6; remark: listed apart in the source
Protocol: as §1, §2

[4] = molecular target: T1, soluble human FcRn; test: ELISA, competitor human IgG; remark: listed apart in the source
Protocol: as §3

[5] = molecular target: T1, soluble human FcRn; test: ELISA, competitor human IgG; remark: listed apart in the source

| Kd [3] | IC50 [4] | Binder | also measured |
| --- | --- | --- | --- |
| – | – | RFXTGXFGGLYPC (Pen at 3; 2-PyrrolidinylAla at 6; Sar at 9; NMeLeu at 10; disulfide; C-terminal amide) [Peptide No. 262] | Kd [1]: 8.4 µM |
| – | – | QRFCTG[Dab]FGGLYPCNGP-NH2 (disulfide 4-14; N-terminus assumed; SMILES CC(C)C[C@@H]1NC(=O)CNC(=O)CNC(=O)[C@H](Cc2ccccc2)NC(=O)[C@H](CCN)NC(=O)CNC(=O)[C@H]([C@@H](C)O)NC(=O)[C@@H](NC(=O)[C@H](Cc2ccccc2)NC(=O)[C@H](CCCNC(=N)N)NC(=O)[C@@H](N)CCC(N)=O)CSSC[C@@H](C(=O)N[C@@H](CC(N)=O)C(=O)NCC(=O)N2CCC[C@H]2C(N)=O)NC(=O)[C@@H]2CCCN2C(=O)[C@H](Cc2ccc(O)cc2)NC1=O) [Peptide No. 36] | IC50 [2]: > 125 µM |
| – | – | QRFXTGXFGGLYPCNGP (Pen at 4; Thz at 7; disulfide; C-terminal amide) [Peptide No. 91] | IC50 [2]: 44 µM |
| – | – | QRFXTGXFGGLYPCNGP (Pen at 4; (1Me)His at 7; disulfide; C-terminal amide) [Peptide No. 138] | IC50 [2]: 3.4 µM; Kd [1]: 0.74 µM |
| 5.2 µM | 17 µM | QRFXTGHFXGLYPCNGP (Pen at 4; Aib at 9; disulfide; C-terminal amide) [Peptide No. 54] | – |
| – | – | RFXTGXFGGLYPC (Pen at 3; Orn at 6; Sar at 9; NMeLeu at 10; disulfide; C-terminal amide) [Peptide No. 254] | Kd [1]: 1.3 µM |
| – | – | RFXTGXFGGLYPC (Pen at 3; 4aminoPhe at 6; Sar at 9; NMeLeu at 10; disulfide; C-terminal amide) [Peptide No. 258] | IC50 [2]: 4.6 µM |
| – | – | RFXTGAFGGLYPC (Pen at 3; Sar at 9; NMeLeu at 10; disulfide; C-terminal amide) [Peptide No. 266] | IC50 [2]: > 100 µM; Kd [1]: 9.9 µM |
| – | – | RFXTGXFGGLYPC (Pen at 3; Thz(Me) (N-methyl-thiazolium) at 6; Sar at 9; NMeLeu at 10; disulfide; -CONH2) [Peptide No. 269] | IC50 [2]: 2.4 µM |
| – | – | RFXTGXFGGLYPC (Pen at 3; triazolylAla at 6; Sar at 9; NMeLeu at 10; disulfide; C-terminal amide) [Peptide No. 271] | IC50 [2]: 5.7 µM |
| – | – | RFXTGXFGGLYPC (Pen at 3; PropargylGly at 6; Sar at 9; NMeLeu at 10; disulfide; C-terminal amide) [Peptide No. 261] | IC50 [2]: 160 µM |
| – | – | RFXTGXFGGLYPC (not fully specified; Pen at 3; Thz at 6; Sar at 9; NMeLeu at 10; disulfide; C-terminal amide) [Peptide No. 248] | IC50 [2]: 1.6 µM; Kd [1]: 0.84 µM |
| – | – | QRFVTGHFG[dP]LYPANGP-NH2 (N-terminus assumed; SMILES CC(C)C[C@H](NC(=O)[C@H]1CCCN1C(=O)CNC(=O)[C@H](Cc1ccccc1)NC(=O)[C@H](Cc1c[nH]cn1)NC(=O)CNC(=O)[C@@H](NC(=O)[C@@H](NC(=O)[C@H](Cc1ccccc1)NC(=O)[C@H](CCCNC(=N)N)NC(=O)[C@@H](N)CCC(N)=O)C(C)C)[C@@H](C)O)C(=O)N[C@@H](Cc1ccc(O)cc1)C(=O)N1CCC[C@H]1C(=O)N[C@@H](C)C(=O)N[C@@H](CC(N)=O)C(=O)NCC(=O)N1CCC[C@H]1C(N)=O) [Peptide No. 157] | IC50 [5]: 195 µM |
| – | – | QRFVTGHFG[dP]FYPANGP-NH2 (N-terminus assumed; SMILES CC(C)[C@H](NC(=O)[C@H](Cc1ccccc1)NC(=O)[C@H](CCCNC(=N)N)NC(=O)[C@@H](N)CCC(N)=O)C(=O)N[C@H](C(=O)NCC(=O)N[C@@H](Cc1c[nH]cn1)C(=O)N[C@@H](Cc1ccccc1)C(=O)NCC(=O)N1CCC[C@@H]1C(=O)N[C@@H](Cc1ccccc1)C(=O)N[C@@H](Cc1ccc(O)cc1)C(=O)N1CCC[C@H]1C(=O)N[C@@H](C)C(=O)N[C@@H](CC(N)=O)C(=O)NCC(=O)N1CCC[C@H]1C(N)=O)[C@@H](C)O) [Peptide No. 175] | IC50 [5]: 200 µM |
| – | – | QRFVTGHFG[dP]IYPANGP-NH2 (N-terminus assumed; SMILES CC[C@H](C)[C@H](NC(=O)[C@H]1CCCN1C(=O)CNC(=O)[C@H](Cc1ccccc1)NC(=O)[C@H](Cc1c[nH]cn1)NC(=O)CNC(=O)[C@@H](NC(=O)[C@@H](NC(=O)[C@H](Cc1ccccc1)NC(=O)[C@H](CCCNC(=N)N)NC(=O)[C@@H](N)CCC(N)=O)C(C)C)[C@@H](C)O)C(=O)N[C@@H](Cc1ccc(O)cc1)C(=O)N1CCC[C@H]1C(=O)N[C@@H](C)C(=O)N[C@@H](CC(N)=O)C(=O)NCC(=O)N1CCC[C@H]1C(N)=O) [Peptide No. 174] | IC50 [5]: 94 µM |
| – | – | QRFVTGHFG[dP]LYPLNGP-NH2 (N-terminus assumed; SMILES CC(C)C[C@H](NC(=O)[C@H]1CCCN1C(=O)CNC(=O)[C@H](Cc1ccccc1)NC(=O)[C@H](Cc1c[nH]cn1)NC(=O)CNC(=O)[C@@H](NC(=O)[C@@H](NC(=O)[C@H](Cc1ccccc1)NC(=O)[C@H](CCCNC(=N)N)NC(=O)[C@@H](N)CCC(N)=O)C(C)C)[C@@H](C)O)C(=O)N[C@@H](Cc1ccc(O)cc1)C(=O)N1CCC[C@H]1C(=O)N[C@@H](CC(C)C)C(=O)N[C@@H](CC(N)=O)C(=O)NCC(=O)N1CCC[C@H]1C(N)=O) [Peptide No. 168] | IC50 [5]: 100 µM |

| Kd [3] | IC50 [4] | Binder | also measured |
| --- | --- | --- | --- |
| 1.5 µM | – | QRFXTGHFGYLYPCNGP (Pen at 4; D-Tyr at 10; disulfide; C-terminal amide) [Peptide No. 45] | – |
| 0.45 µM | – | QRFXTGHFAALYPCNGP (Pen at 4; D-Ala at 9 and 10; disulfide; C-terminal amide) [Peptide No. 148] | – |
| 18.3 µM | 39 µM | QRF[Pen]TGHF[dF]GPYPCNGP-NH2 (disulfide 4-14; N-terminus assumed; SMILES C[C@@H](O)[C@@H]1NC(=O)[C@@H](NC(=O)[C@H](Cc2ccccc2)NC(=O)[C@H](CCCNC(=N)N)NC(=O)[C@@H](N)CCC(N)=O)C(C)(C)SSC[C@@H](C(=O)N[C@@H](CC(N)=O)C(=O)NCC(=O)N2CCC[C@H]2C(N)=O)NC(=O)[C@@H]2CCCN2C(=O)[C@H](Cc2ccc(O)cc2)NC(=O)[C@@H]2CCCN2C(=O)CNC(=O)[C@@H](Cc2ccccc2)NC(=O)[C@H](Cc2ccccc2)NC(=O)[C@H](Cc2c[nH]cn2)NC(=O)CNC1=O) [Peptide No. 155] | – |
| 0.49 µM | – | QRFXTGHFAGLYPCNGP (Pen at 4; D-Ala at 9; disulfide; C-terminal amide) [Peptide No. 75] | – |
| 3.8 µM | – | QRFXTGHFFPLYPCNGP (Pen at 4; D-Phe at 9 (L-Pro at 10); disulfide; C-terminal amide) [Peptide No. 203] | – |
| – | 5 µM | QRFXTGHFPGLYPCNGP (Pen at 4; D-Pro at 9; disulfide; C-terminal amide) [Peptide No. 48] | – |
| 0.51 µM | 2.8 µM | QRFXTGHFFGLYPCNGP (Pen at 4; D-Phe at 9; disulfide; C-terminal amide) [Peptide No. 52] | – |
| – | 3.7 µM | QRF[Pen]TGHF[dA][dP]LYPCNGP-NH2 (disulfide 4-14; N-terminus assumed; SMILES CC(C)C[C@@H]1NC(=O)[C@H]2CCCN2C(=O)[C@@H](C)NC(=O)[C@H](Cc2ccccc2)NC(=O)[C@H](Cc2c[nH]cn2)NC(=O)CNC(=O)[C@H]([C@@H](C)O)NC(=O)[C@@H](NC(=O)[C@H](Cc2ccccc2)NC(=O)[C@H](CCCNC(=N)N)NC(=O)[C@@H](N)CCC(N)=O)C(C)(C)SSC[C@@H](C(=O)N[C@@H](CC(N)=O)C(=O)NCC(=O)N2CCC[C@H]2C(N)=O)NC(=O)[C@@H]2CCCN2C(=O)[C@H](Cc2ccc(O)cc2)NC1=O) [Peptide No. 149] | – |
| 0.48 µM | 2 µM | QRFXTGHFGALYPCNGP (Pen at 4; D-Ala at 10; disulfide; C-terminal amide) [Peptide No. 74] | – |
| 0.24 µM | 1.3 µM | QRFXTGHFFGLYPCNGP (Pen at 4; D-Phe at 9; NMeLeu at 11; disulfide; C-terminal amide) [Peptide No. 153] | – |
| 0.72 µM | 5.9 µM | QRFXTGHFFPLYPCNGP (Pen at 4; D-Phe at 9; D-Pro at 10; disulfide; C-terminal amide) [Peptide No. 150] | – |
| – | 21 µM | QRFXTGHFPPLYPCNGP (Pen at 4; D-Pro at 9 and 10; disulfide; C-terminal amide) [Peptide No. 152] | – |
| 0.19 µM | – | QRFXTGHFAGLYPCNGP (Pen at 4; D-Ala at 9; Sar at 10; disulfide; C-terminal amide) [Peptide No. 189] | – |
| – | 3.6 µM | QRFXTGHFHGLYPCNGP (Pen at 4; D-His at 9; disulfide; C-terminal amide) [Peptide No. 50] | – |
| – | 4.1 µM | QRFXTGHFRGLYPCNGP (Pen at 4; D-Arg at 9; disulfide; C-terminal amide) [Peptide No. 49] | – |
| – | 4.3 µM | QRF[Pen]TGHF[dF][dA]LYPCNGP-NH2 (disulfide 4-14; N-terminus assumed; SMILES CC(C)C[C@@H]1NC(=O)[C@@H](C)NC(=O)[C@@H](Cc2ccccc2)NC(=O)[C@H](Cc2ccccc2)NC(=O)[C@H](Cc2c[nH]cn2)NC(=O)CNC(=O)[C@H]([C@@H](C)O)NC(=O)[C@@H](NC(=O)[C@H](Cc2ccccc2)NC(=O)[C@H](CCCNC(=N)N)NC(=O)[C@@H](N)CCC(N)=O)C(C)(C)SSC[C@@H](C(=O)N[C@@H](CC(N)=O)C(=O)NCC(=O)N2CCC[C@H]2C(N)=O)NC(=O)[C@@H]2CCCN2C(=O)[C@H](Cc2ccc(O)cc2)NC1=O) [Peptide No. 151] | – |
